{"source": "patent US6887705B1", "about": "“Tyrosine phosphorylated cleavage furrow-associated proteins (PSTPIPs)” (Genentech, Inc., priority 1997, dated 2005)", "molecules": {"B1": {"name": "GST-PST-rich+CTH PTP HSCF (GST fusion of PTP HSCF amino acids 304-453) (other, UniProt Q61152 304-453, looked up)", "chain": "QNLKENCAPICKEAFSLRTSSALPATSRPPGGVLRSISVPAPPTLPMADTYAVVQKRGASAGTGPGPRAPTSTDTPIYSQVAPRAQRPVAHTEDAQGTTALRRVPADQNSSGPDAYEEVTDGAQTGGLGFNLRIGRPKGPRDPPAEWTRV", "notes": "range 304-453; the methods give amino acids 304-453; also called GST-PTP HSCF; GST PTP HSCF; not shown: glutathione S-transferase encoded by pGEX-4T-2 (Pharmacia)"}, "B2": {"name": "full-length PSTPIP tagged with the FLAG epitope at the C-terminus (other)", "chain": "MMAQLQFRDAFWCRDFTAHTGYEVLLQRLLDGRKMCKDVEELLRQRAQAEERYGKELVQIARKAGGQTEMNSLRTSFDSLKQQTENVGSAHIQLALALREELRSLEEFRERQKEQRKKYEAIMDRVQKSKLSLYKKTMESKKAYDQKCRDADDAEQAFERVSANGHQKQVEKSQNKAKQCKESATEAERVYRQNIEQLERARTEWEQEHRTTCEAFQLQEFDRLTILRNALWVHCNQLSMQCVKDDELYEEVRLTLEGCDVEGDINGFIQSKSTGREPPAPVPYQNYYDREVTPLIGSPSIQPSCGVIKRFSGLLHGSPKTTPSAPAASTETLTPTPERNELVYASIEVQATQGNLNSSAQDYRALYDYTAQNSDELDISAGDILAVILEGEDGWWTVERNGQRGFVPGSYLEKLDYKDDDDK", "notes": "In vitro transcribed/translated in rabbit reticulocyte lysate, or expressed in COS cells"}}, "key": {"[1]": {"biological_target": "T1, interaction between PTP HSCF and PSTPIP (Mus musculus, UniProt P97814)", "T1 construct": "made in house; host or cells: GST fusion: E. coli DH5-alpha; PSTPIP: in vitro transcription/translation in rabbit reticulocyte lysate (Promega TnT)", "T1 sequence (P97814 1-415)": "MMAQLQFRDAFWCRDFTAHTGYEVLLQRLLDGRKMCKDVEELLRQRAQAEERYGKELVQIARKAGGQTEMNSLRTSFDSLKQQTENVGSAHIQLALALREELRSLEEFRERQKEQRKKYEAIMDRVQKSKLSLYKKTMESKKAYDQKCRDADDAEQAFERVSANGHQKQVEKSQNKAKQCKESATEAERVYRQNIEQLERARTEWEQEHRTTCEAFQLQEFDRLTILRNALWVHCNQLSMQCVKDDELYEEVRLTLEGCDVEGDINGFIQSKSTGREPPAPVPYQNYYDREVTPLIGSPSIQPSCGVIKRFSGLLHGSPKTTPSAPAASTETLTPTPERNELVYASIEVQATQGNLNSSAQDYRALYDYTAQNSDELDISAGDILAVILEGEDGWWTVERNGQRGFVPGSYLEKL", "details": "previous studies (Spencer et al. 1997); cited from earlier work"}, "[2]": {"biological_target": "T2, W232A mutant of PST PIP, C-terminal FLAG (murine, UniProt P97814 1-415)", "T2 construct": "In vitro translated or expressed in COS cells; also called W232A PST PIP; PST PIP with an alanine replacement mutation at tryptophan232", "T2 sequence": "B2 chain with W232A", "assay": "GST-PTP HSCF pulldown of in vitro translated PST PIP mutant", "procedure": "In vitro binding analyses between various PTP HSCF and PST PIP constructs were performed as previously described (Spencer et al, (1997), supra). Briefly, plasmids were transcribed and translated in vitro using the TnT Rabbit Reticulocyte Lysate System (Promega). Samples were diluted in 50 mM HEPES, pH 7.2, 1% triton X-100, 10% glycerol, 100 mM NaCl, and 2 µg/ml each of leupeptin, pepstatin, aprotinin and PMSF (lysis buffer). Samples were than reacted with GST fusion proteins at various concentrations, and the bound proteins were centrifuged using glutathione-sepharose beads and analyzed on SDS polyacrylamide gels. C-terminally-derived peptide inhibition studies were performed by incubating the GST fusion protein binding reactions in the presence of 10 µg/ml of the indicated peptides. Peptides were produced by FMOC-protected amino acids as previously described (Spencer et al, (1997), supra). In vivo interactions between various forms of PTP HSCF and PST PIP were also performed as previously described (Spencer et al, (1997), supra). Briefly, COS cells were transfected with various constructs, and after 48 hours, lysates were prepared and immunoprecipitated with antibodies to either the FLAG epitope contained at the C-terminus of PST PIP or an HA epitope contained at the N-terminus of PTP HSCF. […]"}, "[3]": {"biological_target": "T3, PST PIP missing 50 amino acids from the N-terminus (delta 50), C-terminal FLAG (murine, UniProt P97814 51-415)", "T3 construct": "The 5' primer (N-coil.2, Glu51) carries ATGATG before the first PSTPIP codon", "T3 sequence": "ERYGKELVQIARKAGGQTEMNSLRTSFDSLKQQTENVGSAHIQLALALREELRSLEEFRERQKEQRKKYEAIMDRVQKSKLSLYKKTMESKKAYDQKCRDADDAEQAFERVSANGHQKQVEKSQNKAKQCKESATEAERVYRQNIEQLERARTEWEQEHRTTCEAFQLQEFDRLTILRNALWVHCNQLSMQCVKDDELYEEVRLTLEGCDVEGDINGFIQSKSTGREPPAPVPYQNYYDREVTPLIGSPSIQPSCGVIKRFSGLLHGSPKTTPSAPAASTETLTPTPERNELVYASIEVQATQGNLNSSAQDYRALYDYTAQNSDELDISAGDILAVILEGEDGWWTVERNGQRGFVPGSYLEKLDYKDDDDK", "assay": "GST-PTP HSCF pulldown of in vitro translated PST PIP deletion mutant", "excerpt": "(§1) FIG. 9. N Terminal Truncations Result in a Loss of PST PIP Binding to PTP HSCF. Full length PST PIP (Spencer et al., *J. Cell. Biol.*, 138(4):845–860 (1997)) and forms missing 25 (delta 25), 50 (delta 50) and 75 (delta 75) amino acids from the N-terminus were transcribed and translated in vitro. The upper panel illustrates immunoprecipitation of the proteins with an antibody directed against a PST PIP C-terminal FLAG epitope. The lower panel illustrates the same proteins precipitated with a GST fusion protein containing the C-terminal 149 amino acids of PTP HSCF (Cheng et al., *Oncogene* 13:2275–2279 (1996)) including the C-terminal proline rich binding site.\n(§2) In vitro binding analyses between various PTP HSCF and PST PIP constructs were performed as previously described (Spencer et al, (1997), supra). Briefly, plasmids were transcribed and translated in vitro using the TnT Rabbit Reticulocyte Lysate System (Promega). Samples were diluted in 50 mM HEPES, pH 7.2, 1% triton X-100, 10% glycerol, 100 mM NaCl, and 2 µg/ml each of leupeptin, pepstatin, aprotinin and PMSF (lysis buffer). Samples were than reacted with GST fusion proteins at various concentrations, and the bound proteins were centrifuged using glutathione-sepharose beads and analyzed on SDS polyacrylamide gels. […]"}, "[4]": {"biological_target": "T4, PST PIP missing 75 amino acids from the N-terminus (delta 75), C-terminal FLAG (murine, UniProt P97814 76-415)", "T4 construct": "The 5' primer (N-coil.3, Ser76) carries ATGATG before the first PSTPIP codon", "T4 sequence": "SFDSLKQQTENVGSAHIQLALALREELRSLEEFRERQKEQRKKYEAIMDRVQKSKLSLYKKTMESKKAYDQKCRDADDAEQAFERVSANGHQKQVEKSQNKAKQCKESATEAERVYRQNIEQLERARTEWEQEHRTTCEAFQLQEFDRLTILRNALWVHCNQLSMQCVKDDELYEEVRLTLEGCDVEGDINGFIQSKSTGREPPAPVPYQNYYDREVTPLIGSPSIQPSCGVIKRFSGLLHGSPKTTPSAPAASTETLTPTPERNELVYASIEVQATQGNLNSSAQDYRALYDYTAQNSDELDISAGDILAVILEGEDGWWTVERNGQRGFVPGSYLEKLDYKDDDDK", "assay": "GST-PTP HSCF pulldown of in vitro translated PST PIP deletion mutant", "excerpt": "as §1, §2"}, "[5]": {"biological_target": "T5, double mutant of PTP HSCF with both R444 and W450 mutated to alanine, HA tagged (UniProt Q61152 1-453)", "T5 construct": "range 1-453; also called R+W; R444+W450", "T5 sequence (looked up)": "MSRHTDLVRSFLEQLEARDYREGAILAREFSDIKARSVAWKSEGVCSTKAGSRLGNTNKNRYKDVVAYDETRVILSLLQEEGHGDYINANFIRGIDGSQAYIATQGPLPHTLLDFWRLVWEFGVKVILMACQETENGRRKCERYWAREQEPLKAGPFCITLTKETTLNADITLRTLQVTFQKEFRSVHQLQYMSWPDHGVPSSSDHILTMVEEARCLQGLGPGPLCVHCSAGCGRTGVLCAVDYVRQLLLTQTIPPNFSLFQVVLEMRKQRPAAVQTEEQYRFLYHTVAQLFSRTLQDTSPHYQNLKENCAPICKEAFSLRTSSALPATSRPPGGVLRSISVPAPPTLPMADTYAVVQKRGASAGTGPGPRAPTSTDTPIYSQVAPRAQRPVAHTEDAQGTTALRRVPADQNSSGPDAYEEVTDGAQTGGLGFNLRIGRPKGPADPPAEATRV", "assay": "anti-HA immunoprecipitation from co-transfected COS cells, blot with anti-PST PIP", "procedure": "Multiple bands precipitated with the GST PST PIP fusion protein are apparently C-terminal proteolyzed products of the PTP. Also shown are GST PST PIP precipitations (10 μg/ml) performed on a double mutant of PTP HSCF (R+W) with both residues $R444$ and $W450$ mutated to alanine (bottom panel FIG. 14 A/2). B. COS cells were co-transfected with a 10:1 ratio of plasmids encoding hemagglutinin (HA) tagged PTP HSCF with the illustrated alanine substitutions or a mutant of PTP HSCF deleted for the C-terminal 24 amino acids (PTP $HSCFD24$) and wild type PST PIP with a C-terminal FLAG epitope tag, respectively. Transfected cell lysates were immunoprecipitated with anti-HA monoclonal antibodies and the precipitates were blotted with anti-PST PIP polyclonal antibody to detect the relative amounts of PST PIP complexed with either wild type or different mutant forms of PTP HSCF. […] Equal expression of PSTPIP was determined by immunoprecipitating lysates with anti-FLAG monoclonal antibody and blotting with anti-PST PIP polyclonal antibody.\nIn vitro binding analyses between various PTP HSCF and PST PIP constructs were performed as previously described (Spencer et al, (1997), supra). […] Samples were than reacted with GST fusion proteins at various concentrations, and the bound proteins were centrifuged using glutathione-sepharose beads and analyzed on SDS polyacrylamide gels. […]"}}, "note": "Where a chain is given by its changes, count along the chain named.", "data": [{"molecule": "GFGNRFSKPKGPRNPPSAW [PXXP-PEP]", "values": [{"measurement": "blocking of the PTP HSCF-PST PIP interaction by C-terminal peptides of related PTPs", "setting": "[1]", "value": "effectively block the interaction"}]}, {"molecule": "GFGNRCGKPKGPRDPPSEWT [PXXP-PEST]", "values": [{"measurement": "blocking of the PTP HSCF-PST PIP interaction by C-terminal peptides of related PTPs", "setting": "[1]", "value": "effectively block the interaction"}]}, {"molecule": "B1", "values": [{"measurement": "binding result", "setting": "[2]", "value": "no binding"}, {"measurement": "binding result", "setting": "[3]", "value": "no binding"}, {"measurement": "binding result", "setting": "[4]", "value": "no binding"}]}, {"molecule": "B2", "values": [{"measurement": "binding result", "setting": "[5]", "value": "no binding"}]}]}
